According to article PMC6939650 (Molecules and Cells, 2019):

Biological target: the molecule itself
Assay: SEC-MALS

B1: MexT regulatory domain (domain or fragment, Pseudomonas aeruginosa, UniProt Q9I0Z0 95-304, looked up)
chain: PATSTAVFRIGLSDDVEFGLLPPLLRRLRAEAPGIVLVVRRANYLLMPNLLASGEISVGVSYTDELPANAKRKTVRRSKPKILRADSAPGQLTLDDYCARPHALVSFAGDLSGFVDEELEKFGRKRKVVLAVPQFNGLGTLLAGTDIIATVPDYAAQALIAAGGLRAEDPPFETRAFELSMAWRGAQDNDPAERWLRSRISMFIGDPDSL
stoichiometry N: 2
